Measured values from patent US20100260765A1 (AstraZeneca / MedImmune, published 2010).

Legend:
[1] = biological target: T1, soluble KDR extracellular domain (ECD) (Calbiochem) (human, UniProt P35968 20-764); assay: Limited Antigen ELISA, KDR coat 25 ng/mL, supernatant 1:25
T1 construct: extracellular domain; Bought protein; also called KDR-ECD; VEGF Receptor 2 D1-7, Cat. #676490
Experimental: (§1) Samples containing one concentration of antibody (Ab) (1:25 dilution) were incubated overnight to allow Ab binding to approach equilibrium. The low antigen concentration limited the effect of antibody concentration, allowing ranking of the antibodies based on their relative affinity.

[2] = biological target: T1, soluble KDR extracellular domain (ECD) …; assay: Limited Antigen ELISA, KDR coat 50 ng/mL, supernatant 1:25
Experimental: as §1

[3] = biological target: T1, soluble KDR extracellular domain (ECD) …; assay: High Antigen ELISA, KDR coat 500 ng/mL, supernatant 1:18,225
Experimental: (§2) ELISA plates were coated with a greater amount of KDR (at 500 ng/mL) in comparison with the Limited Antigen Quantitation assay described below. Sample containing antibody (Ab) was titrated on the KDR-coated ELISA plates and was incubated overnight at 4° C. to allow Ab binding to approach equilibrium. Titration of Ab in sample covered a dilution range of 1:25 to 1:18,225. A standard curve of KDR-specific antibody of known concentration was used to define the linear range of the assay. Data within the linear range were used to derive the relative concentration of KDR-specific Ab in each titrated sample. The high KDR concentration and the overnight incubation limited the effect of Ab affinity, allowing quantitation of the relative amount of KDR-specific Ab present in each sample.

[4] = biological target: T1, soluble KDR extracellular domain (ECD) …; assay: Limited Antigen ELISA, KDR coat 12.5 ng/mL, supernatant 1:25
Experimental: as §1

[5] = biological target: T1, soluble KDR extracellular domain (ECD) …; assay: High Antigen ELISA, KDR coat 500 ng/mL, supernatant 1:25
Experimental: as §2

[6] = biological target: T1, soluble KDR extracellular domain (ECD) …; assay: High Antigen ELISA, KDR coat 500 ng/mL, supernatant 1:2025
Experimental: as §2

[7] = biological target: T1, soluble KDR extracellular domain (ECD) …; assay: High Antigen ELISA, KDR coat 500 ng/mL, supernatant 1:225
Experimental: as §2

[8] = biological target: T1, soluble KDR extracellular domain (ECD) …; assay: High Antigen ELISA, KDR coat 500 ng/mL, supernatant 1:675
Experimental: as §2

[9] = biological target: T1, soluble KDR extracellular domain (ECD) …; assay: Limited Antigen ELISA, KDR coat 6.25 ng/mL, supernatant 1:25
Experimental: as §1

[10] = biological target: KDR endogenously expressed on human umbilical vein endothelial cells (HUVEC) (human, UniProt P35968 20-1356); assay: cell-based or functional assay
Sequence of KDR endogenously expressed on human umbilical vein endothelial cells (HUVEC) (P35968 20-1356): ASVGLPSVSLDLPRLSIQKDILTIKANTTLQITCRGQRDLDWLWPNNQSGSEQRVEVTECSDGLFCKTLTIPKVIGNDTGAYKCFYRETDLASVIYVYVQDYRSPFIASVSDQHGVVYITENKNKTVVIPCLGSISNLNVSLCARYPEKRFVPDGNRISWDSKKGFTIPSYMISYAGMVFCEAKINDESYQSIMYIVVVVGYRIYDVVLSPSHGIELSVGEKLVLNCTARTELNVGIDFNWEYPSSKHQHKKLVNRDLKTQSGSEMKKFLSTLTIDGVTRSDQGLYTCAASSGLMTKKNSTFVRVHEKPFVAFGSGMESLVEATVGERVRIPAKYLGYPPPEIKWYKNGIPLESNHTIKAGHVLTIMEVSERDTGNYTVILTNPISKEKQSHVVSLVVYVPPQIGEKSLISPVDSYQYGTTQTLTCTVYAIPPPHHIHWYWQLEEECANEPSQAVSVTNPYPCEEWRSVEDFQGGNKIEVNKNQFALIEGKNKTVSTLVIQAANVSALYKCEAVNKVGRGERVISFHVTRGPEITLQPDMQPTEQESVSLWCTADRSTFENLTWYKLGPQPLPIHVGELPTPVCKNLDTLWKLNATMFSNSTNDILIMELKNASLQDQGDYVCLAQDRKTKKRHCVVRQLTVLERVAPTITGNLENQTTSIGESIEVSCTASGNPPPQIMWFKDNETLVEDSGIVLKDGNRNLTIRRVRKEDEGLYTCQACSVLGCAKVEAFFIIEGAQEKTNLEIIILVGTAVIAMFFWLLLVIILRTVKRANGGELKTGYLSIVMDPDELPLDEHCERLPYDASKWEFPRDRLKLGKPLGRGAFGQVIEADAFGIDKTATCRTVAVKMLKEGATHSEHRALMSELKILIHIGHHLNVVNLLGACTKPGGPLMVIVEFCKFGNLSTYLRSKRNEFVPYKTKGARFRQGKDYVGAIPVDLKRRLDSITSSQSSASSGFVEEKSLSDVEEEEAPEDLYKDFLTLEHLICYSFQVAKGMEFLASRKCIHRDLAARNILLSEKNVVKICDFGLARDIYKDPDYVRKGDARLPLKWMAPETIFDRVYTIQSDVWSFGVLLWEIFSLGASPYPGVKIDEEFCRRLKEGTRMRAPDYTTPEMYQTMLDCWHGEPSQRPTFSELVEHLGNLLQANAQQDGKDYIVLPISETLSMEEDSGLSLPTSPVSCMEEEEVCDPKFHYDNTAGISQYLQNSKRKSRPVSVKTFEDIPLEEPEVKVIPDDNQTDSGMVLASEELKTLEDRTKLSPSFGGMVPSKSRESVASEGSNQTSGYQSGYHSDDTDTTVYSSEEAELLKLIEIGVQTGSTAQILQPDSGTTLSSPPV

[11] = biological target: T1, soluble KDR extracellular domain (ECD) …; assay: Limited Antigen ELISA, KDR coat 3.125 ng/mL, supernatant 1:25
Experimental: as §1

[12] = biological target: T1, soluble KDR extracellular domain (ECD) …; assay: High Antigen ELISA, KDR coat 500 ng/mL, supernatant 1:6075
Experimental: as §2

[13] = biological target: T1, soluble KDR extracellular domain (ECD) …; assay: High Antigen ELISA, KDR coat 500 ng/mL, supernatant 1:75
Experimental: as §2

T1 sequence (P35968 20-764): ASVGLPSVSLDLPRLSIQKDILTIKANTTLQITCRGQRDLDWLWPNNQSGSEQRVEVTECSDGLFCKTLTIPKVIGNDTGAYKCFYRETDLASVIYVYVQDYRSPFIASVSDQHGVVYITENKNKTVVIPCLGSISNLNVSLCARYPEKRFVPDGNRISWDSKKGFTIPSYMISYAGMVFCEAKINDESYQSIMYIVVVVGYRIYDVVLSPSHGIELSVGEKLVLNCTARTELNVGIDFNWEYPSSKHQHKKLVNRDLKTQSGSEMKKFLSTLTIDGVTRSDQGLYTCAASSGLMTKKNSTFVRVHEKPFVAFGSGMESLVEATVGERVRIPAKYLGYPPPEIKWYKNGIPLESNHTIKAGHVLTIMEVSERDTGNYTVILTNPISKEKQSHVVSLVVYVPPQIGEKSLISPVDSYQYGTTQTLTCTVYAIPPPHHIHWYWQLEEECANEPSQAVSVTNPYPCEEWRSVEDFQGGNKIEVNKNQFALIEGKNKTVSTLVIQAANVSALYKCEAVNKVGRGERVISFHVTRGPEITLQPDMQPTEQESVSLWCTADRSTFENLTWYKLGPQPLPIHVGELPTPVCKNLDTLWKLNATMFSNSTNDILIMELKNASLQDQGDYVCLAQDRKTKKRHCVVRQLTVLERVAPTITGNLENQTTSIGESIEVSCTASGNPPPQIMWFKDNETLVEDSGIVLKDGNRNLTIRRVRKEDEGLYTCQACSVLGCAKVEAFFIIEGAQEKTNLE

Row | Binder | ELISA reading [1] | ELISA reading [2] | ELISA reading [3] | ELISA reading [4] | ELISA reading [5] | ELISA reading [6] | ELISA reading [7] | ELISA reading [8] | ELISA reading [9] | VEGF-E-mediated Survival % Inhibition (Average) [10] [%] | VEGF-E-mediated Survival % Inhibition (n = 1) [10] [%] | VEGF-E-mediated Survival % Inhibition (n = 2) [10] [%] | ELISA reading [11] | ELISA reading [12] | ELISA reading [13]
1 | 29H3 (antibody, V domains shown, Fully human mAb from XenoMouse hybridoma, tested as hybridoma supernatant) VH: QVQLVQSGAEVKKPGASVKVSCKASGYTFTSYDINWVRQATGQGLEWMGWMNPNSGKTGYAQKFQGRVTMTRNTSINTAYMELSSLRSEDTAVYYCARGGYSNLGWFDPWGQGTLVTVSS VL: DIQMTQSPSSVSASVGDRVTITCRASQGISSWLVWYHQKPGKAPKLLIYGASSLQSGVPSRFSGSGSGTDFTLTISSLQPEDFATYYCQQANNFPFTFGPGTKVDIK | 1.03 | 2.13 | 0.21 | 0.4 | 4.52 | 1.42 | 4.29 | 2.83 | 0.24 | -15 | -19 | -11 | 0.16 | 0.47 | 4.96
2 | 27D10 (antibody, V domains shown, Fully human mAb from XenoMouse hybridoma, tested as hybridoma supernatant) VH: QLQLQESGPGLVKPSETLSLTCTVSGGSISSRSDYWGWIRQPPGKGLEWIGTIYYSGSTFYNPSLKSRVTISVDTSKNQFSLKLSSVTAADTAVYYCARQQLVLYYFDYWGQGTLVTVSS VL: not shown | 0.54 | 1.36 | 0.41 | 0.25 | 4.09 | 1.87 | 3.95 | 3.79 | 0.14 | 57 | 50 | 64 | 0.12 | 0.89 | 4.02
3 | 32F4 (antibody, V domains shown, Fully human mAb from XenoMouse hybridoma, tested as hybridoma supernatant) VH: QLQLQESGPGLVKPSGTLSLSCTVSGGSISSRSDYWGWIRQPPGKGLEWIGTIYYSGNTFYNPSLKSRVTISVDTSKKQFSLKLSSVTAADTAVYYCARQQLVLYYFDYWGQGTLVTVSS VL: EIVLTQSPGTLSLSPGERATLSCRTSQSVSSSYLAWYQQKPGQAPRLLIYGASSRATGVPDRFSGSGSGTDFSLTISRLEPEDFAVYYCQQYGSSPPLTFGGGTKVEIK | 1.09 | 2.22 | 0.5 | 0.74 | 4.79 | 2.71 | 6 | 4.61 | 0.36 | 64 | 64 | 64 | 0.23 | 0.97 | 5.56
4 | 27A3 (antibody, V domains shown, Fully human mAb from XenoMouse hybridoma, tested as hybridoma supernatant) VH: QLQLQESGPGLVKPSETLSLTCTVSGGSISSRSDYWGWIRQPPGKGLEWIGTIYYSGDTYYNPSLKSRVTISVDTSKNQFSLKLSSVTAADTAVYYCARQQLVLYYFDYWGQGTLVTVSS VL: EIVLTQSPGTLSLSPGERATLSCRASQSVSSSYLAWYQQKPGQAPRLLIYATSNRATGIPDRFSGSGSGTDFTLTISRLEPEDFAVYYCQQHGSSPPLTFGGGTKVEIK | 1.26 | 2.3 | 0.4 | 0.54 | 4.79 | 2.05 | 5.26 | 3.93 | 0.26 | 58 | 63 | 52 | 0.15 | 0.96 | 4.72
5 | 29D4 (antibody, V domains shown, Fully human mAb from XenoMouse hybridoma, tested as hybridoma supernatant) VH: QLQLQESGPGLVKPSETLSLTCTVSGGSISSRSNYWGWIRQPPGKGLEWIGTIYYSGHTYYNPSLKSRVSISVDTSKNQFSLKLSSVTATDTALYYCARQQLVLYYFEYWGQGTLVTVSS VL: not shown | 1.87 | 3.31 | 0.25 | 0.8 | 4.24 | 2.06 | 6 | 4.09 | 0.41 | 66 | 64 | 67 | 0.23 | 0.66 | 5.57
6 | 29A3 (antibody, V domains shown, Fully human mAb from XenoMouse hybridoma, tested as hybridoma supernatant) VH: QVQLQESGPGLVKPSETLSLTCTVSGGSISSYFWSWIRQPAGKGLEWIGRIYFSGRTNYNPSLKSRVTMSVETSKNQFSLKLNSVTAADTAVYYCARDGGWNYDVAFDYWGQGTLVTVSS VL: QAVLTQPSSLSASPGASASLTCTLRSGINVGTYRIYWYQQKPGSPPQYLLRYKSDSDQLQGSGVPSRFSGSKDASANAGILLISGLQSEDEADYYCMVWHSNTWVFGGGTKLTVL | 1.13 | 2.27 | 0.24 | 0.49 | 3.89 | 1.91 | 3.85 | 3.32 | 0.27 | -10 | -1 | -20 | 0.16 | 0.57 | 4.06
7 | 32G7 (antibody, V domains shown, Fully human mAb from XenoMouse hybridoma, tested as hybridoma supernatant) VH: EVQLVESGGGLVKPGGSLRLSCAASGFTISSYSMNWVRQAPGKGLEWVSFISSRSNYIYYADSVKGRFTISRDNAKNSLYLQMNSLRAEDTAVYYCSKDDWFEELWGQGTLVTVSS VL: DIQMTQSPSSLSASVGDRVTITCRASQDIRNDLGWYQQKPGKAPKRLIYAASSLQSGVPSRFSGSGSGTEFTLTISSLQPEDFATYYCLQHNSFPWTFGQGTKVEIK | 0.15 | 0.19 | 0.11 | 0.11 | 2.03 | 0.38 | 0.96 | 0.55 | 0.08 | 62 | 69 | 54 | 0.07 | 0.24 | 1.27
8 | 33B1 (antibody, V domains shown, Fully human mAb from XenoMouse hybridoma, tested as hybridoma supernatant) VH: EVQLVESGGGLVKPGGSLRLSCAASGFTFSSYTMNWVRQAPGKGLEWVSFIDSRSSYIYYADSVKGRFTISRDNAKNSLYLQMNSLRAEDTAVYYCSKDDWFEELWGQGTLVTVSS VL: DIQMTQSPSSLSASVGDRVTITCRASQGIRNDLGWYQQKPGKAPKRLIYATSSLQSGVPSRFSGSGSGTEFTLTISSLQPEDFATYYCLHHNSFPWTFGQGTKVEIK | 0.2 | 0.23 | 0.2 | 0.12 | 2.71 | 0.55 | 1.62 | 1.1 | 0.08 | 67 | 66 | 68 | 0.08 | 0.25 | 2.32
